Assays:
[1] = molecular target: T1, recombinant human FRα protein (Sino Biological cat #11241-H08H) (human, UniProt P15328 25-233); assay: ELISA: plate coated with recombinant human FRα (2 µg/mL), threefold dilution series of the antibody or ADC, goat anti-human IgG-HRP, normalized A450; x axis printed as [Recombinant FRa] (M) with log10 values
T1 construct: Bought recombinant protein; also called human folate receptor alpha; FOLR1
Method: (§1) Sandwich ELISA assays are performed using 96-well high-binding ELISA plates (Corning Inc., New York, NY, USA, Cat #3590). Plates are coated using 100 µL/well of recombinant human FRα protein (Sino Biological cat #11241-H08H) in PBS (pH 7.4) at 2 μg/mL and incubated overnight at 4° C. After 2 washes with PBS-T (PBS+0.05% Tween-20), the plates are blocked with 200 μL/well of incubation buffer (PBS-T+0.1% BSA) for 1 h at room temperature. The plates are washed 4 times with PBS-T, and 100 μL of a threefold dilution series of tested compound (antibody or antibody-drug conjugate) is added. Then, the plates are incubated for 2 h at room temperature in the dark. After 5 washes with PBS-T, plates are incubated 1 h at room temperature with 100 μL/well of a goat anti-human IgG (H+L) HRP conjugated antibody (Jackson Immunoresearch cat #109-035-088), previously diluted 1:250000 in incubation buffer. After 5 washes with PBS-T, TMB substrate solution (Thermo-Fisher cat #N301) is added. […] Sigmoidal fittings were performed using GraphPad Prism 9 software.
Sandwich ELISA assays were performed using 96-well high-binding ELISA plates (Corning Inc., New York, NY, USA, Cat #3590). Plates were coated using 100 μL/well of recombinant human FRα protein (Sino Biological cat #11241-H08H); recombinant cynomolgus FRα protein (Sino Biological cat #90950-C08H); recombinant rat FRα protein (Sino Biological cat #81073-R08H) or recombinant mouse FRα protein (Sino Biological cat #50573-M08H) in PBS (pH 7.4) at 2 μg/mL and incubated overnight at 4° C. After 2 washes with PBS-T (PBS+0.05% Tween-20), the plates were blocked with 200 μL/well of incubation buffer (PBS-T+0.1% BSA) for 1 h at room temperature. The plates were washed 4 times with PBS-T, and 100 μL of a threefold dilution series of tested compound (antibody or antibody-drug conjugate) was added. Then, the plates were incubated for 2 h at room temperature in the dark. After 5 washes with PBS-T, plates were incubated 1 h at room temperature with 100 μL/well of a goat anti-human IgG (H+L) HRP conjugated antibody (Jackson Immunoresearch cat #109-035-088), previously diluted 1:250000 in incubation buffer.

[2] = molecular target: T1, recombinant human FRα protein (Sino …); assay: SPR, Biacore T200, 25 °C: antibody or ADC captured with Human Antibody Capture kit on CM5 chip, recombinant human FRα as analyte (0.5-8 nM), single cycle kinetics, 1:1 model, KD calculated as kd/ka
Method: (§2) Surface plasmon resonance (SPR) experiments are performed on a Biacore T200 apparatus, at 25° C. Tested antibody or ADC are captured at low density (300-500 RU) on a CM5 series S sensorchip, beforehand functionalized with a Human Antibody Capture kit (Cytiva cat #BR100839). A functionalized surface/flow cell treated similarly but omitting ligand is used as reference. […] The dissociation phase is measured by injection of running buffer for 900 sec. Between duplicates, surfaces/flow cells are regenerated with 3M MgCl₂ to remove both analyte and ligand, and fresh ligand capture are done using identical conditions. The data analysis is performed using the Biacore Evaluation software after subtraction of reference surface and analyte zero-concentration signals. Data are processed and fit to a 1:1 binding model to determine the binding kinetic rate constants, kₐ (on-rate) and kd (off-rate), and the KD (equilibrium dissociation constant, also referred to as “affinity”). Mean values and standard deviations over replicates are reported.
(§3) Surface plasmon resonance (SPR) experiments were performed on a Biacore T200 apparatus, at 25° C. Tested antibody or ADC were captured at low density (300-500 RU) on a CM5 series S sensorchip, beforehand functionalized with a Human Antibody Capture kit (Cytiva cat #BR100839). A functionalized surface/flow cell treated similarly but omitting ligand was used as reference. […] The dissociation phase was measured by injection of running buffer for 900 sec. Between duplicates, surfaces/flow cells were regenerated with 3M MgCl₂ to remove both analyte and ligand, and fresh ligand capture were done using identical conditions.

[3] = molecular target: T1, recombinant human FRα protein (Sino …); assay: SPR, Biacore T200, 25 °C: antibody or ADC captured with Human Antibody Capture kit on CM5 chip, recombinant human FRα as analyte (0.5-8 nM), single cycle kinetics, 1:1 model, mean over replicates
Method: as §2, §3

[4] = molecular target: T1, recombinant human FRα protein (Sino …); assay: SPR Biacore T200, antibody captured, recombinant human FRα as analyte, 1:1 model; the filing attributes it to an increased kd with a similar ka
Method: as §2
Surface plasmon resonance (SPR) experiments were performed on a Biacore T200 apparatus, at 25° C. Tested antibody or ADC were captured at low density (300-500 RU) on a CM5 series S sensorchip, beforehand functionalized with a Human Antibody Capture kit (Cytiva cat #BR100839). […] The dissociation phase was measured by injection of running buffer for 900 sec. […]

[5] = molecular target: T2, recombinant mouse FRα protein (Sino Biological cat #50573-M08H) (mouse, UniProt P35846 25-232); assay: ELISA: plate coated with recombinant mouse FRα (2 µg/mL), threefold dilution series of F-LALA-VA-EXA, goat anti-human IgG-HRP, A450; x axis printed as [Recombinant FRa] (M) with log10 values
T2 construct: Bought; also called mouse recombinant FRα protein
Method: (§4) Sandwich ELISA assays were performed using 96-well high-binding ELISA plates (Corning Inc., New York, NY, USA, Cat #3590). Plates were coated using 100 μL/well of recombinant human FRα protein (Sino Biological cat #11241-H08H); recombinant cynomolgus FRα protein (Sino Biological cat #90950-C08H); recombinant rat FRα protein (Sino Biological cat #81073-R08H) or recombinant mouse FRα protein (Sino Biological cat #50573-M08H) in PBS (pH 7.4) at 2 μg/mL and incubated overnight at 4° C. After 2 washes with PBS-T (PBS+0.05% Tween-20), the plates were blocked with 200 μL/well of incubation buffer (PBS-T+0.1% BSA) for 1 h at room temperature. The plates were washed 4 times with PBS-T, and 100 μL of a threefold dilution series of tested compound (antibody or antibody-drug conjugate) was added. Then, the plates were incubated for 2 h at room temperature in the dark. After 5 washes with PBS-T, plates were incubated 1 h at room temperature with 100 μL/well of a goat anti-human IgG (H+L) HRP conjugated antibody (Jackson Immunoresearch cat #109-035-088), previously diluted 1:250000 in incubation buffer. After 5 washes with PBS-T, TMB substrate solution (Thermo-Fisher cat #N301) was added. […] Sigmoidal fittings were performed using GraphPad Prism 9 software.

[6] = molecular target: T3, recombinant rat FRα protein (Sino Biological cat #81073-R08H) (rat, UniProt G3V8M6 25-232); assay: ELISA: plate coated with recombinant rat FRα (2 µg/mL), threefold dilution series of F-LALA-VA-EXA, goat anti-human IgG-HRP, A450; x axis printed as [Recombinant FRa] (M) with log10 values
T3 construct: Bought; also called rat recombinant FRα protein
Method: as §4

[7] = molecular target: T1, recombinant human FRα protein (Sino …); assay: ELISA: plate coated with recombinant human FRα (2 µg/mL), threefold dilution series of F-LALA-VA-EXA, goat anti-human IgG-HRP, A450; x axis printed as [Recombinant FRa] (M) with log10 values
Method: as §1
Sandwich ELISA assays were performed using 96-well high-binding ELISA plates (Corning Inc., New York, NY, USA, Cat #3590). […]

[8] = molecular target: T4, recombinant cynomolgus FRα protein (Sino Biological cat #90950-C08H) (cynomolgus, UniProt A0A2K5U044 25-234); assay: ELISA: plate coated with recombinant cynomolgus FRα (2 µg/mL), threefold dilution series of F-LALA-VA-EXA, goat anti-human IgG-HRP, A450; x axis printed as [Recombinant FRa] (M) with log10 values
T4 construct: Bought; also called cynomolgus recombinant FRα protein
Method: as §4

T1 sequence (P15328 25-233 limits assumed): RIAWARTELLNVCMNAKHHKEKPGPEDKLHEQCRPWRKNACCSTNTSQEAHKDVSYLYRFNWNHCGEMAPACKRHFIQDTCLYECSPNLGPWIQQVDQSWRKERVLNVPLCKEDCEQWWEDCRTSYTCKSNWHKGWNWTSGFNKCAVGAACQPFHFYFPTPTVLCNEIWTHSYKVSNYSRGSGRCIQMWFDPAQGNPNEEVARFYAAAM
T4 sequence (A0A2K5U044 entry or part of it C08H C08H): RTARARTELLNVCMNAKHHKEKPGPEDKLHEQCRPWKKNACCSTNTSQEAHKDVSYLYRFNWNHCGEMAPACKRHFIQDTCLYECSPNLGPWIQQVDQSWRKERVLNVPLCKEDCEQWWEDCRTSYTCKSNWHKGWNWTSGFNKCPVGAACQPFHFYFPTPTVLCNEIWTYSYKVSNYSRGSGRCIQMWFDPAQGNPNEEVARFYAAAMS
T3 sequence (G3V8M6 entry or part of it R08H R08H limits assumed): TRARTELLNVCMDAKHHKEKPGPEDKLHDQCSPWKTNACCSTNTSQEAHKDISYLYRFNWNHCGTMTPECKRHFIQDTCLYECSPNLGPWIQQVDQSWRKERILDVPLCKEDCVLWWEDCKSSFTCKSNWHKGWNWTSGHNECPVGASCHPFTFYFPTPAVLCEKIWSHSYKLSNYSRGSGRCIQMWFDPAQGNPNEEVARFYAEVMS
T2 sequence (P35846 25-232 limits assumed, stated change not applied): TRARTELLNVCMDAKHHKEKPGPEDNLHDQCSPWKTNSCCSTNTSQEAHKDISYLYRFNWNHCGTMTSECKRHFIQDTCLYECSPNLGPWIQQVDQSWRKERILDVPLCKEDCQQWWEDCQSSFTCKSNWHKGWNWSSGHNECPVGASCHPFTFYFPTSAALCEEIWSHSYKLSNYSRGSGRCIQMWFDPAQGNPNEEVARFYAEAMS

EC50 (read off the curve) [1] [nM]	Kd [2] [nM]	koff [3] [s⁻¹]	kon [3] [M⁻¹ s⁻¹]	fold change of KD against mirvetuximab and mirvetuximab-based constructs [4] [fold]	binding result [5]	binding result [6]	EC50 (read off the curve) [7] [nM]	EC50 (read off the curve) [8] [nM]	Binder
~0.1	25.1	0.0361	1.9e+06	~10	–	–	–	–	farletuzumab (antibody, human IgG1, kappa, Human IgG1, made in CHO K1 cells; also called mAb2; native farletuzumab) heavy: not shown light: DIQLTQSPSSLSASVGDRVTITCSVSSSISSNNLHWYQQKPGKAPKPWIYGTSNLASGVPSRFSGSGSGTDYTFTISSLQPEDIATYYCQQWSSYPYMYTFGQGTKVEIKRTVAAPSVFIFPPSDEQLKSGTASVVCLLNNFYPREAKVQWKVDNALQSGNSQESVTEQDSKDSTYSLSSTLTLSKADYEKHKVYACEVTHQGLSSPVTKSFNRGEC
~0.1	30.9	0.0306	1e+06	–	–	–	–	–	F-VA-EXA (antibody, human IgG1, kappa, interchain cysteine thiol conjugated to drug-linker LNK4-S, DAR 8; interchain cysteine thiols conjugated to drug-linker LNK4-S (Val-Ala-exatecan, polysarcosine), DAR 8) heavy chain: not shown light chain: DIQLTQSPSSLSASVGDRVTITCSVSSSISSNNLHWYQQKPGKAPKPWIYGTSNLASGVPSRFSGSGSGTDYTFTISSLQPEDIATYYCQQWSSYPYMYTFGQGTKVEIKRTVAAPSVFIFPPSDEQLKSGTASVVCLLNNFYPREAKVQWKVDNALQSGNSQESVTEQDSKDSTYSLSSTLTLSKADYEKHKVYACEVTHQGLSSPVTKSFNRGEC
~0.1	25.5	0.0321	1.34e+06	~10	–	–	–	–	farletuzumab-LALA (antibody, human IgG1, kappa, L234A L235A, also called mAb1; Fc-silent farletuzumab-LALA) heavy: not shown light: DIQLTQSPSSLSASVGDRVTITCSVSSSISSNNLHWYQQKPGKAPKPWIYGTSNLASGVPSRFSGSGSGTDYTFTISSLQPEDIATYYCQQWSSYPYMYTFGQGTKVEIKRTVAAPSVFIFPPSDEQLKSGTASVVCLLNNFYPREAKVQWKVDNALQSGNSQESVTEQDSKDSTYSLSSTLTLSKADYEKHKVYACEVTHQGLSSPVTKSFNRGEC
~0.1	27.8	0.0368	1.33e+06	–	no binding	no binding	~0.1	~0.1	F-LALA-VA-EXA (antibody, human IgG1, kappa, L234A L235A, drug-linker LNK4-S on the interchain cysteine thiol, 1 per light chain (LC-1d); drug-linker LNK4-S (Val-Ala-exatecan with polysarcosine) on interchain cysteine thiols, 3 per heavy chain (HC-3d); DAR …, Antibody-drug conjugate) heavy: not shown light: DIQLTQSPSSLSASVGDRVTITCSVSSSISSNNLHWYQQKPGKAPKPWIYGTSNLASGVPSRFSGSGSGTDYTFTISSLQPEDIATYYCQQWSSYPYMYTFGQGTKVEIKRTVAAPSVFIFPPSDEQLKSGTASVVCLLNNFYPREAKVQWKVDNALQSGNSQESVTEQDSKDSTYSLSSTLTLSKADYEKHKVYACEVTHQGLSSPVTKSFNRGEC
~0.2	0.211	0.000244	1.15e+06	–	–	–	–	–	mirvetuximab (antibody, human IgG1, kappa, V domains shown, also called native mirvetuximab) VH: QVQLVQSGAEVVKPGASVKISCKASGYTFTGYFMNWVKQSPGQSLEWIGRIHPYDGDTFYNQKFQGKATLTVDKSSNTAHMELLSLTSEDFAVYYCTRYDGSRAMDYWGQGTTVTVSS VL: DIVLTQSPLSLAVSLGQPAIISCKASQSVSFAGTSLMHWYHQKPGQQPRLLIYRASNLEAGVPDRFSGSGSKTDFTLTISPVEAEDAATYYCQQSREYPYTFGGGTKLEIKR
~0.3	0.26	0.000327	1.26e+06	–	–	–	–	–	M-SORAV (antibody, human IgG1, kappa, V domains shown, sulfo-SPDB-DM4 stochastically conjugated to lysines; average DAR 3.35 for the whole antibody, Antibody-drug conjugate; also called ADC derivative of mirvetuximab; mirvetuximab soravtansine comparator) VH: QVQLVQSGAEVVKPGASVKISCKASGYTFTGYFMNWVKQSPGQSLEWIGRIHPYDGDTFYNQKFQGKATLTVDKSSNTAHMELLSLTSEDFAVYYCTRYDGSRAMDYWGQGTTVTVSS VL: DIVLTQSPLSLAVSLGQPAIISCKASQSVSFAGTSLMHWYHQKPGQQPRLLIYRASNLEAGVPDRFSGSGSKTDFTLTISPVEAEDAATYYCQQSREYPYTFGGGTKLEIKR
